According to US8409859B2, “Differentiation of non-embryonic stem cells to cells having a pancreatic phenotype” (Regents of the University of Minnesota, priority 2005, dated 2013):

System: rat MAPCs
Test: Cytokine mediated differentiation of rat MAPCs, Q-RT-PCR and cell survival
Assay type: cell-based
Description: For Q-RT-PCR reactions described herein, the primer sequences are presented in Tables 3-5 and the following protocols were used: RNA was extracted from the cells with the aid of the RNeasy Mini Kit (Qiagen; Valencia Calif.), followed by a DNase Treatment with DNA-Free™ (Ambion, Austin, Tex.). The RNA was reverse transcribed with TaqMan (Applied Biosystems, Foster City, Calif.; Step 1 (Incubation): 25° C., 10 min; Step 2 (RT): 48° C., 30 min; Step 3 (RT Inactivation): 95° C., 10 min).
Following reverse transcription, Quantitative Real Time PCR (Q-RT-PCR) was performed as follows: Step 1: 50° C., 2 min (Incubation); Step 2: 95° C., 10 min (Taq activation); Step 3: 95° C., 15 sec (Denaturation) followed by 60° C., 1 min (Extension) and repeat for 40 cycles; Step 4: 95° C., 15 sec (Dissociation); Step 5: 60° C., 20 sec (Melting curve); Step 6: 95° C., 15 sec.
In an initial series of studies, the effect of cell density (about 10^4-10^5 cells/cm^2), ECM component (fibronectin, collagen, matrigel) and different concentrations (10-100 ng/mL) of bFGF (10-100 ng/mL), FGF2 (10-100 ng/mL), Activin A (e.g., about 10 ng/mL to about 100 ng/mL), BMP4 (e.g., about 10 ng/mL to about 50 ng/mL), retinoic acid (about 10^−6M), EGF (e.g., about 10 to about 100 ng/mL), FGF10 (e.g., about 50 to about 150 ng/mL, including about 100 ng/mL), HGF (e.g., about 10 to about 100 ng/mL), GDF11 (e.g., about 50 to abut 150 ng/mL), cyclopamine (e.g., about 10 μM), anti-SHH antibody (Ab; e.g., about 10 μg/mL), nicotinamide (e.g., 5 μM to about 50 μM, including about 10 μM), exendin 4 (about 5 nM to about 50 nM, including about 10 nM), betacellulin (e.g., about 50 to abut 150 ng/mL) alone or in combinations of 2 or 3 and in different temporal sequences, on the induction of transcription factors, insulin, glucagon and somatostatin expression levels after 6, 12 and 18 days using Q-RT-PCR was determined.
Subsequent addition of factors believed to play a role in further proliferation and differentiation from pancreas-committed cells to mature endocrine pancreas, including EGF (e.g., about 50 ng/mL), HGF (e.g., about 50 ng/mL) and FGF10 (e.g., about 100 ng/mL), either alone or in combination was tested. […] Further optimization was obtained by adjusting the duration of the different steps along the differentiation course, as well addition of β-cellulin (50 ng/mL).

Molecule | Ins1 and Ins2 mRNA levels (GDF11 added) | cell survival (activin-A, BMP4 and cyclopamine or anti-SHH Ab withdrawn after d6, cells then maintained with the factor)
GDF11: member of the BMP/TGFbeta superfamily (protein, UniProt O95390 299-407, looked up) Growth/differentiation factor …: NLGLDCDEHSSESRCCRYPLTVDFEAFGWDWIIAPKRYKANYCSGQCEYMFMQKYPHTHLVQQANPRGSAGPCCTPTKMSPINMLYFNDKQQIIYGKIPGMVVDRCGCS | a further increase | –
FGF10: FGF produced by mesenchymal cells, used at about 100 ng/mL (protein, UniProt O15520 38-208, looked up) Fibroblast growth factor 10: QALGQDMVSPEATNSSSSSFSSPSSAGRHVRSYNHLQGDVRWRKLFSFTKYFLKIEKNGKVSGTKKENCPYSILEITSVEIGVVAVKAINSNYYLAMNKKGKLYGSKEFNNDCKLKERIEENGYNTYASFNWQHNGRQMYVALNGKGAPRRGQKTRRKNTSAHFLPMVVHS | – | not
